Data from publication PMC13534887.

Biological target: PaMprF H566C mutant (Pseudomonas aeruginosa)
Assay: cross-linking + native gel or EMSA; purified enzymes in GDN and in nanodisc, with cross-linker; SDS added to the sample before loading on the BN-PAGE gel

## PaMprF H566C mutant (enzyme)
  stoichiometry N: 2
